Here are results for four substances from patent US20230355541A1, “ENZYMATICALLY CLEAVABLE SELF-ASSEMBLED NANOPARTICLES FOR MORPHOGEN DELIVERY” (UNIVERSITY OF SOUTH CAROLINA, priority 2019, published 2023).

The target in the series is T1, BSA (Bos taurus, UniProt P02769).
T1 construct: purchased Jackson ImmunoResearch (West Grove, Pa.)
T1 sequence (P02769 25-607): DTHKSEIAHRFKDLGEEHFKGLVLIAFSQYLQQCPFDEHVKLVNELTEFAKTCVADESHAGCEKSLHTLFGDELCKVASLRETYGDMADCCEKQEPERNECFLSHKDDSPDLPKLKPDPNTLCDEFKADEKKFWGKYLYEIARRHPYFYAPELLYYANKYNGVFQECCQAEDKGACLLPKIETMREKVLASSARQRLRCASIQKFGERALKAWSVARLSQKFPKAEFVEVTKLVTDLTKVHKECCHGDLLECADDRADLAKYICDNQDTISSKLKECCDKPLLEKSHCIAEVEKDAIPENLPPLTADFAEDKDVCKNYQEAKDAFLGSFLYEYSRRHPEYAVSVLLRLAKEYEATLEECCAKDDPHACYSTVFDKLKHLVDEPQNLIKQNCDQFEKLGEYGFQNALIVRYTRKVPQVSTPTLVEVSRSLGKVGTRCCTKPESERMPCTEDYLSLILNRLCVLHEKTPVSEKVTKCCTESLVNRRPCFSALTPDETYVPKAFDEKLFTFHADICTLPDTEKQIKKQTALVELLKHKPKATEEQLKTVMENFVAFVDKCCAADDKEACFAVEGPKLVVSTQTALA
Nature of the series: Circular dichroism of BSA grafted to PxSPCP NPs. It counts as physicochemical, bovine. To be noted: PBS, 20° C. The protocol:
Bioactivity and Cell Compatibility of BMP2-PxSPCP NPs: Circular dichroism (CD) was used to determine the effect of grafting on secondary structure of the model BSA protein. CD spectra of free or grafted BSA in PBS were collected with a spectropolarimeter (JASCO J815, Essex, UK) at 20° C. with a cuvette of 0.1 cm path length. For evaluation of cell compatibility, hMSCs (1×10^6 cells/mL) and PxSPCP NPs (10 mg) were encapsulated in LPELA hydrogel and cultured in basal medium. At each time point, the hydrogels were stained with cAM/EthD live/dead assay (1 μg/mL) and the stained cells were imaged with an inverted fluorescent microscope (Nikon Eclipse Ti-ε, Nikon, Melville, N.Y.). To quantify cell viability, the medium was replaced with fresh medium containing 10% MTS and incubated for 6 hours at 37° C. and the sample absorbance was measured with a microplate reader (Molecular Devices, San Jose, Calif.) at a wavelength of 490 nm.
(Circular dichroism is the unequal absorption of left and right circularly polarised light.)
As to “BSA-P0.5SPCP NPs: BSA grafted to P0.5SPCP NPs”, the “CD spectrum of grafted BSA compared with free BSA” value was “close to that of free BSA”.
In the case of “BSA-P2SPCP NPs: BSA grafted to P2SPCP NPs”, the “CD spectrum of grafted BSA compared with free BSA” value is reported as “slight change”.
As for BSA-P5SPCP: BSA grafted to P5SPCP NPs, the “CD spectrum of grafted BSA compared with free BSA” value is recorded as “substantially different”.
Take “BSA-P7.5SPCP: BSA grafted to P7.5SPCP NPs”: the “CD spectrum of grafted BSA compared with free BSA” value is “substantially different”.
